Data from publication PMC7144946.

T1: Yap1 bZIP (Aspergillus fumigatus, UniProt Q4WMH0 135-234)
T1 sequence: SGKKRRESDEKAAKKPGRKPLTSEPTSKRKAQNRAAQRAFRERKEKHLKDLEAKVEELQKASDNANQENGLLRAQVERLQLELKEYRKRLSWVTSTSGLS


Legend:
Assay in all cases: SPR
[1] = biological target: A. fumigatus CCAAT-binding complex (CBC) consisting of HapB(230–299), HapC(40–137) and HapE(47–164) (Aspergillus fumigatus)
[2] = biological target: T1, Yap1 bZIP
[3] = biological target: HapX dCBC-BD (Aspergillus fumigatus, UniProt Q4WER3 59-158)

Row | Molecule | apparent KD with cccA-369 promoter DNA (HapX on preformed CBC:DNA) [1] [nM] | apparent KD with cox6 promoter DNA (HapX on preformed CBC:DNA) [1] [nM] | apparent KD with hemH promoter DNA (HapX on preformed CBC:DNA) [1] [nM] | Kd [2] [nM] | binding signal [3] [fold increase vs HapX]
1 | A. fumigatus HapX(24–158) (from UniProt Q4WER3 24-158) (domain or fragment) | 0.4 | 3600 | 121 |  | 
2 | cyp51A-293 (dsDNA) DNA 1: GCTGAGCCGAATGAAAGTTGCCTAATTACTAAGGTGT DNA 2: ACACCTTAGTAATTAGGCAACTTTCATTCGGCTCAGC |  |  |  | 13 | 
3 | cccA-369 (dsDNA) DNA 1: AAATCCACCAATCAACGCCTCCGTGATTGTCAGCAAT DNA 2: ATTGCTGACAATCACGGAGGCGTTGATTGGTGGATTT |  |  |  | 50 | 3
